For 1 substance, percent of T cells GFP+ results are on record in patent publication US20250027073A1.

Some results are limits rather than exact numbers.

The test deals with Flu-m158-66-TCR, on Jurkat T cells.

“Influenza M158-66 ([…]) presented by HLA-A0201, single-chain trimer of pMHC displayed on the lentiviral surface (from UniProt P61769 21-119) (peptide-MHC)”: the percent of T cells GFP+ was > 87%.
